Results taken from US12123876B2, “Antibody binding to HEG1 and use of the antibody for detection and treatment of mesothelioma” (Kanagawa Prefectural Hospital Organization, priority 2016, dated 2024).

B1: 7.6: HEG1 exon 7 fragment from amino acid No. 783 bonded to SLURPgpi; SEQ ID NO: 66 in FIG. 13 (protein)
chain: DLKSQSTPHQEKVITESKSPSLVSLPTESTKAVTTNSPLPPSLTESSTEQTLPATSTNLAQMSPTFTTTILKTSQPLMTTPGTLSSTASLVTGPIAVQTTAGKQLSLTHPEILVPQISTEGGISTERNRVIVDATSGLIPLTSVPTSAKEMTTKLGVTAEYSPASRSLGTSPSPQTTVVSTAEDLAPKSATFAVQSSTQSPTTLSSSASGSLKCYTCKEPMTSASCRTITRCKPEDTACMTTLVTVEAEYPFNQSPVVTRSCSSSCVATDPDSIGAAHLIFCCFRDLCNSELSRDGAPSLGSPGGLLLALALFLLLGVLL
B2: HEG1 2 kb: HEG1 fragment, position 677 leucine to position 1387 phenylalanine of SEQ ID NO: 35 (protein, listed as Homo sapiens)
chain: SSGPPLPLPSVSQSHHLFSSILPSTRASVHLLKSTSDASTPWSSSPSPLPVSLTTSTSAPLSVSQTTLPQSSSTPVLPRARETPVTSFQTSTMTSFMTMLHSSQTADLKSQSTPHQEKVITESKSPSLVSLPTESTKAVTTNSPLPPSLTESSTEQTLPATSTNLAQMSPTFTTTILKTSQPLMTTPGTLSSTASLVTGPIAVQTTAGKQLSLTHPEILVPQISTEGGISTERNRVIVDATSGLIPLTSVPTSAKEMTTKLGVTAEYSPASRSLGTSPSPQTTVVSTAEDLAPKSATFAVQSSTQSPTTLSSSASVNSCAVNPCLHNGECVADNTSRGYHCRCPPSWQGDDCSVDVNECLSNPCPSTAMCNNTQGSFICKCPVGYQLEKGICNLVRTFVTEFKLKRTFLNTTVEKHSDLQEVENEITKTLNMCFSALPSYIRSTVHASRESNAVVISLQTTFSLASNVTLFDLADRMQKCVNSCKSSAEVCQLLGSQRRIFRAGSLCKRKSPECDKDTSICTDLDGVALCQCKSGYFQFNKMDHSCRACEDGYRLENETCMSCPFGLGGLNCGNPYQLITVVIAAAGGGLLLILGIALIVTCCRKNKNDISKLIFKSGDFQMSPYAEYPKNPRSQEWGREAIEMHENGSTKNLLQMTDVYYSPTSVRNPELERNGLYPAYTGLPGSRHSCIFPGQYNPSFISDESRRRDYF
B3: HEG1 3 kb: HEG1 fragment, position 285 leucine to position 1387 phenylalanine of SEQ ID NO: 35 (protein, listed as Homo sapiens)
chain: LSWLHFYRTAASSPLLDLSSSSESTEKLNNSTGLQSSSVSQTKTMHVATVFTDGGPRTLRSLTVSLGPVSKTEGFPKDSRIATTSSSVLLSPSAVESRRNSRVTGNPGDEEFIEPSTENEFGLTSLRWQNDSPTFGEHQLASSSEVQNGSPMSQTETVSRSVAPMRGGEITAHWLLTNSTTSADVTGSSASYPEGVNASVLTQFSDSTVQSGGSHTALGDRSYSESSSTSSSESLNSSAPRGERSIAGISYGQVRGTAIEQRTSSDHTDHTYLSSTFTKGERALLSITDNSSSSDIVESSTSYIKISNSSHSEYSSFFHAQTERSNISSYDGEYAQPSTESPVLHTSNLPSYTPTINMPNTSVVLDTDAEFVSDSSSSSSSSSSSSSSSSSSSSGPPLPLPSVSQSHHLFSSILPSTRASVHLLKSTSDASTPWSSSPSPLPVSLTTSTSAPLSVSQTTLPQSSSTPVLPRARETPVTSFQTSTMTSFMTMLHSSQTADLKSQSTPHQEKVITESKSPSLVSLPTESTKAVTTNSPLPPSLTESSTEQTLPATSTNLAQMSPTFTTTILKTSQPLMTTPGTLSSTASLVTGPIAVQTTAGKQLSLTHPEILVPQISTEGGISTERNRVIVDATSGLIPLTSVPTSAKEMTTKLGVTAEYSPASRSLGTSPSPQTTVVSTAEDLAPKSATFAVQSSTQSPTTLSSSASVNSCAVNPCLHNGECVADNTSRGYHCRCPPSWQGDDCSVDVNECLSNPCPSTAMCNNTQGSFICKCPVGYQLEKGICNLVRTFVTEFKLKRTFLNTTVEKHSDLQEVENEITKTLNMCFSALPSYIRSTVHASRESNAVVISLQTTFSLASNVTLFDLADRMQKCVNSCKSSAEVCQLLGSQRRIFRAGSLCKRKSPECDKDTSICTDLDGVALCQCKSGYFQFNKMDHSCRACEDGYRLENETCMSCPFGLGGLNCGNPYQLITVVIAAAGGGLLLILGIALIVTCCRKNKNDISKLIFKSGDFQMSPYAEYPKNPRSQEWGREAIEMHENGSTKNLLQMTDVYYSPTSVRNPELERNGLYPAYTGLPGSRHSCIFPGQYNPSFISDESRRRDYF
B4: HEG1 1 kb: HEG1 fragment, position 992 valine to position 1387 phenylalanine of SEQ ID NO: 35 (protein, listed as Homo sapiens)
chain: VNSCAVNPCLHNGECVADNTSRGYHCRCPPSWQGDDCSVDVNECLSNPCPSTAMCNNTQGSFICKCPVGYQLEKGICNLVRTFVTEFKLKRTFLNTTVEKHSDLQEVENEITKTLNMCFSALPSYIRSTVHASRESNAVVISLQTTFSLASNVTLFDLADRMQKCVNSCKSSAEVCQLLGSQRRIFRAGSLCKRKSPECDKDTSICTDLDGVALCQCKSGYFQFNKMDHSCRACEDGYRLENETCMSCPFGLGGLNCGNPYQLITVVIAAAGGGLLLILGIALIVTCCRKNKNDISKLIFKSGDFQMSPYAEYPKNPRSQEWGREAIEMHENGSTKNLLQMTDVYYSPTSVRNPELERNGLYPAYTGLPGSRHSCIFPGQYNPSFISDESRRRDYF
B5: HEG1 full length: full length human HEG1 protein, SEQ ID NO: 35, expressed in mesothelioma cell line (protein, listed as Homo sapiens)
chain: MASPRASRWPPPLLLLLLPLLLLPPAAPGTRDPPPSPARRALSLAPLAGAGLELQLERRPEREPPPTPPRERRGPATPGPSYRAPEPGAATQRGPSGRAPRGGSADAAWKHWPESNTEAHVENITFYQNQEDFSTVSSKEGVMVQTSGKSHAASDAPENLTLLAETADARGRSGSSSRTNFTILPVGYSLEIATALTSQSGNLASESLHLPSSSSEFDERIAAFQTKSGTASEMGTERAMGLSEEWTVHSQEATTSAWSPSFLPALEMGELTTPSRKRNSSGPDLSWLHFYRTAASSPLLDLSSSSESTEKLNNSTGLQSSSVSQTKTMHVATVFTDGGPRTLRSLTVSLGPVSKTEGFPKDSRIATTSSSVLLSPSAVESRRNSRVTGNPGDEEFIEPSTENEFGLTSLRWQNDSPTFGEHQLASSSEVQNGSPMSQTETVSRSVAPMRGGEITAHWLLTNSTTSADVTGSSASYPEGVNASVLTQFSDSTVQSGGSHTALGDRSYSESSSTSSSESLNSSAPRGERSIAGISYGQVRGTAIEQRTSSDHTDHTYLSSTFTKGERALLSITDNSSSSDIVESSTSYIKISNSSHSEYSSFFHAQTERSNISSYDGEYAQPSTESPVLHTSNLPSYTPTINMPNTSVVLDTDAEFVSDSSSSSSSSSSSSSSSSSSSSGPPLPLPSVSQSHHLFSSILPSTRASVHLLKSTSDASTPWSSSPSPLPVSLTTSTSAPLSVSQTTLPQSSSTPVLPRARETPVTSFQTSTMTSFMTMLHSSQTADLKSQSTPHQEKVITESKSPSLVSLPTESTKAVTTNSPLPPSLTESSTEQTLPATSTNLAQMSPTFTTTILKTSQPLMTTPGTLSSTASLVTGPIAVQTTAGKQLSLTHPEILVPQISTEGGISTERNRVIVDATSGLIPLTSVPTSAKEMTTKLGVTAEYSPASRSLGTSPSPQTTVVSTAEDLAPKSATFAVQSSTQSPTTLSSSASVNSCAVNPCLHNGECVADNTSRGYHCRCPPSWQGDDCSVDVNECLSNPCPSTAMCNNTQGSFICKCPVGYQLEKGICNLVRTFVTEFKLKRTFLNTTVEKHSDLQEVENEITKTLNMCFSALPSYIRSTVHASRESNAVVISLQTTFSLASNVTLFDLADRMQKCVNSCKSSAEVCQLLGSQRRIFRAGSLCKRKSPECDKDTSICTDLDGVALCQCKSGYFQFNKMDHSCRACEDGYRLENETCMSCPFGLGGLNCGNPYQLITVVIAAAGGGLLLILGIALIVTCCRKNKNDISKLIFKSGDFQMSPYAEYPKNPRSQEWGREAIEMHENGSTKNLLQMTDVYYSPTSVRNPELERNGLYPAYTGLPGSRHSCIFPGQYNPSFISDESRRRDYF

The molecules below were run on SKM9-2 antibody (assay: Western blot reactivity of human HEG1 fragments expressed in ACC-MESO-1 with SKM9-2 antibody). Details: Western blot of cell lysate.
Type: binding, mouse
Procedure: In this Example, the mesothelioma cell line ACC-MESO-1 was allowed to express a human HEG1 fragment with the endogenous HEG1 of ACC-MESO-1 knocked down, and the reactivity with the SKM9-2 antibody was examined. Subsequently, the reactivity with the antibody was tested for the epitope region through alanine scanning, and key amino acids for binding to the antibody were determined.
Gene transfer was performed with HEG1 siRNA (H9106) (SEQ ID NOs: 40, 41) and human HEG1 for the mesothelioma cell line ACC-MESO-1, and the reactivity of the SKM9-2 was examined through Western blot analysis. A full length protein (HEG1 full length) or a fragment (HEG1 3 kb, HEG1 2 kb, or HEG1 1 kb) of the human HEG1 was used. The full length human HEG1 protein, a protein having the amino acid sequence set forth in SEQ ID NO: 35, was obtained through inserting a base sequence set forth in SEQ ID NO: 34 into pFLAG-CMV1 (Sigma-Aldrich Japan K.K.) to obtain a plasmid, transforming the plasmid, and allowing the mesothelioma cell line to express the plasmid. Fragment HEG1 3 kb was obtained through inserting a fragment corresponding to a sequence from position 285, leucine, to position 1387, phenylalanine, of SEQ ID NO: 35 into pFLAG-CMV1 (Sigma-Aldrich Japan K.K.) in an in-frame manner, and allowing the mesothelioma cell line to express the resultant. HEG1 2 kb and HEG1 1 kb were obtained through allowing the mesothelioma cell line to express products similarly obtained from a fragment corresponding to a sequence from position 677, leucine, to position 1387, phenylalanine, of SEQ ID NO: 35 and a fragment corresponding to a sequence from position 992, valine, to position 1387, phenylalanine, of SEQ ID NO: 35, respectively. Each cell lysate was analyzed through Western blot with the SKM9-2 antibody.
Further, the region in exon 7 of HEG1 was analyzed in detail. The amino acid sequence of a part of exon 7 of HEG1 was connected to the N-terminal side of a protein obtained by connecting a GPI anchor signal to human SLURP1 (SEQ ID NO: 42; hereinafter referred to as “SLURPgpi”) to produce a fusion protein, and the reactivity of the SKM9-2 was examined through Western blot analysis with the fusion protein. A signal sequence (SEQ ID NO: 43) was added to the N-terminal of the fusion protein before expression.
Used fusion proteins of a partial sequence of exon 7 of HEG1 and SLURPgpi were as follows: • a fragment obtained by bonding a fragment from amino acid No. 783, aspartic acid, to amino acid No. 991, serine, to SLURPgpi (7.6); • a fragment obtained by bonding a fragment from amino acid No. 832, glutamine, to amino acid No. 991, serine, to SLURPgpi (7.7); • a fragment obtained by bonding a fragment from amino acid No. 886, glutamine, to amino acid No. 991, serine, to SLURPgpi (7.8); • a fragment obtained by bonding a fragment from amino acid No. 941, alanine, to amino acid No. 991, serine, to SLURPgpi (7.9); • a fragment obtained by bonding SEQ ID NO: 44 to SLURPgpi (7.61); • a fragment obtained by bonding SEQ ID NO: 45 to SLURPgpi (7.62); • a fragment obtained by bonding SEQ ID NO: 46 to SLURPgpi (7.63); • a fragment obtained by bonding SEQ ID NO: 47 to SLURPgpi (7.64); • a fragment obtained by bonding SEQ ID NO: 48 to SLURPgpi (7.623); • a fragment obtained by bonding SEQ ID NO: 49 to SLURPgpi (7.6231); • a fragment obtained by bonding SEQ ID NO: 50 to SLURPgpi (7.6232); • a fragment obtained by bonding SEQ ID NO: 51 to SLURPgpi (7.6241); and • a fragment obtained by bonding SEQ ID NO: 52 to SLURPgpi (7.6242).
For B1, the “Binding to SKM9-2 antibody (positive/negative)” value (from here on “Binding … (positive/negative)”) was “positive”.
In the case of B2, the “Binding … (positive/negative)” value is reported as “positive”.
B3 was tested, and the “Binding … (positive/negative)” value was “positive”.
In the case of B4, the “Binding … (positive/negative)” value is reported as “negative”.
In the case of B5, the “Binding … (positive/negative)” value is reported as “positive”.

Same assay, conditions: Western blot of cell lysate; listed as fragment 7.6
With B1 the “Binding … (positive/negative)” value was “positive signal”.
